Paper PMC10470402 (iScience, 2023)

T1: S. pombe Gemin2/HT-SMNp complex (S. pombe, UniProt P0CU08 1-235; Q09808 1-35)
T1 sequence 1: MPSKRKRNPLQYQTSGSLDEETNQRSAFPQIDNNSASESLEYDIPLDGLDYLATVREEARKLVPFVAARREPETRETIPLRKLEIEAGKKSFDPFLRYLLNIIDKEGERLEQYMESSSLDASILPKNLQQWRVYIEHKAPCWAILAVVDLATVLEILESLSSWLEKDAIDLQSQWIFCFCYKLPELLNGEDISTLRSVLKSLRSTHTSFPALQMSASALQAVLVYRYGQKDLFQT
T1 sequence 2: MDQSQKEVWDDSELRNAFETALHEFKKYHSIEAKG

T2: S. pombe Gemin6/Gemin7/Gemin8 complex, HT-tag removed (S. pombe, UniProt G2TRK8 1-93; G2TRR1 1-91; Q9USY8 1-166)
T2 sequence 1: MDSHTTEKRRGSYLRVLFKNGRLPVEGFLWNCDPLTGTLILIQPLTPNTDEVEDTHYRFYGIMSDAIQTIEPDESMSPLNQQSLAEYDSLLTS
T2 sequence 2: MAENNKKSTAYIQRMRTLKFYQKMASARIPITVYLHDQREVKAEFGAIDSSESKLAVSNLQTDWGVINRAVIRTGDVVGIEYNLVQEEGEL
T2 sequence 3: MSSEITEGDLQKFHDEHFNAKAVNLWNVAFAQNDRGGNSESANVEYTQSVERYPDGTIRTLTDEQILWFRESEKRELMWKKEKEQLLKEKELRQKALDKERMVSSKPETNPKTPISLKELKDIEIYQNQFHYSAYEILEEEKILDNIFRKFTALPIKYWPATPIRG

B1: S. pombe HT-ICln (residues 1-160) (domain or fragment)
chain: MITKIDSLPKDLIRKVENGEKLLPNQEIVYFEEKTVPYKIRSDEESFPLGKLITLLVTSQSFILFDEEQNSGWKIPYETITLHAKQSKDKPYVYVQLEGEAIRPLLDHILKFERSSGTLHEAPSTEDENEFTDDFLELTLYVTDVDSCYQALCTCQSLHP
B2: S. pombe SmD1/SmD2 subcomplex, HT-tag removed (complex)
chain 1: not shown
chain 2: MADLVDKPRSELSEIELARLEEYEFSAGPLSVLQQAVKNHDQVLINCRNNKKLLARVKAFDRHSNMVLENVKEMWTEKKRTASGKKGKAINKDRFISKMFLRGDGVVLVVRIPSA
B3: S. pombe SmD3 (1-83)/SmB (1-93) subcomplex, HT-tag removed (complex)
chain 1: MSLCIKLLHETQGHIVTMELENGSTYRGKLIEAEDNMNCQMRDISVTARDGRVSHLDQVYIRGSHIRFLIVPDMLRNAPMFKV
chain 2: MGTTKMVSLLNHSLNVTTKDGRTFVGQLLAFDGFMNLVLSDCQEYRHIKKQNVPSNSVYEEKRMLGLVILRGEFIVSLSVQGPPPMDPSMRGS
B4: S. pombe SMN, full length, HT-tag removed (natural protein)
chain: MDQSQKEVWDDSELRNAFETALHEFKKYHSIEAKGGVSDPDSRLDGEKLISAARTEESISKLEEGEQMINQQTETTLEGDTHIQQFADNKGLSDEKPETRAAETHQEFMEVPPPIRGLTYDETYKKLIMSWYYAGYYTGLAEGLAKSEQRKD
B5: S. pombe SmF/SmE/SmG subcomplex, HT-tag removed (complex)
chain 1: not shown
chain 2: MSGRVQKVMIPPINFIFKLLQQHTPVSIWLFEQTDIRLQGQIRGFDEFMNIVLDDAVQVDAKNNKRELGRILLKGDNITLIQAI
chain 3: MSKAGAPDLKKYLDRQVFVQLNGSRKVYGVLRGYDIFLNIVLEDSIEEKVDGEKVKIGSVAIRGNSVIMIETLDKMT

Assays:
[1] = molecular target: S. pombe SmD1/HT-SmD2 subcomplex (S. pombe, UniProt O42661 1-117; O14036 1-115); test: SEC + other: ion-exchange chromatography
Chain of S. pombe SmD1/HT-SmD2 subcomplex (O42661 whole entry, one chain of several): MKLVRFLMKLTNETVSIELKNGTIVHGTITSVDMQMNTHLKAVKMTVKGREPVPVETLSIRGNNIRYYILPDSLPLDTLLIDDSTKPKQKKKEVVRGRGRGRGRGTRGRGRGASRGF

[2] = molecular target: B2; test: SEC
[3] = molecular target: B3; test: SEC
[4] = molecular target: T1, S. pombe Gemin2/HT-SMNp complex; test: pull-down
[5] = molecular target: B1; test: pull-down
[6] = molecular target: T1, S. pombe Gemin2/HT-SMNp complex; test: pull-down; remark: listed apart in the source
[7] = molecular target: B1; test: pull-down; remark: listed apart in the source
[8] = molecular target: T2, S. pombe Gemin6/Gemin7/Gemin8 complex, …; test: SEC
[9] = molecular target: the molecule itself; test: SEC

Row | Binder | percent bound (D1/D2 and F/E/G added together) [4] [%] | percent bound [6] [%] | percent bound [7] [%] | further results
1 | B1 |  |  |  | binding result [1]: binds; binding result [2]: binds; binding result [3]: binds
2 | B2 | 59 | 19.8 | 100 | percent bound (D1/D2 and F/E/G added together) [5]: 95%
3 | B3 |  |  | 88.9 | 
4 | B4 |  |  |  | binding result [8]: binds
5 | B5 | 53.5 | 14.1 |  | stoichiometry N [9]: 6
